Assay: soluble on expression in E. coli; label from the status in PepcDB or PDB records

Sequence	soluble on expression in E. coli
SNADPKEGVQYEVLSTSLENDGMAPVTEVFALSCGHCRNMENFLPVISQEAGTDIGKMHITFNQSAHIASMFYYAAEMQVDGAPDHAFMEDLFAATQMGEGTTLTEQQEAYSKAFTSRGLVSPYDFNEEQRDTLIKKVDNAKMLSEKSGISSVPTFVVNGKYNVLIGGHDDPKQIADTIRYLLEK	soluble
MGSDKIHHHHHHMQWRRVLRFVNMEVVYVLGVKGGIGKTTFSLYFANQLSLTGKKVLYIDHDYFSFGSLILGHNDLGLLEEIENNLPIFSRSLKNINNLYILKLFSNPLDANKDYSLLSNSIPQVVNSIAKMGLDYVILDSSVGILPDNDIVIGLLEELDVEKKGVFLSDMLSVNSTIKYAKLWENAIKYKILVINMVPPIPEDLSEAMKIANKVYDDNNSKLFNTVVVVPFDEKMYNYKPLGNEYENERLNTILSCIVNRCNTLIIN	not soluble
MVSITSDAIRNALHKVKGPNFESDIVSLGLLSEILVVHGKVFFSITVPDGRVQEWESLRRSVEEVVSALDGVEAVFVTLTTERRPEMSSQLQRDEVFFAPKRRANRLLEKMPIEGVRHVVAVASGKGGVGKSTMAINIALALQDSGFKTGLMDADIYGPSLPRLTGLVNQKPQYIDGKKLHPLEKFGLKLMSMGFLVEEENPVVWRGPMVMAAVTQLLRDVLWGPLDVLVVDMPPGTGDAQLTLAQQVQLTGALIVSTPQDLALVDARKAMEMFMKVNVPILGLIENMSYFIAPDTGKRYDIFGYGGTRAEARRRGVPFLAEVPLDAALRSSSDDGIPIFVAKPDEEHTKLYRSIVGQIKNKFF	not soluble
MDVAGLTDCGLIRKSNQDAFYIDEKHQRFFIVADGMGGHAGGEEASRLAVDHIRQYLETHLEDLQHDPVTLLRQAFLAANHAIVEQQRQNSARADMGTTAVVILLDEKGDRAWCAHVGDSRIYRWRKDQLQQITSDHTWIAQAVQLGSLTIEQARQHPWRHVLSQCLGREDLSQIDIQPIDLEPGDRLLLCSDGLTEELTDDVISIYLSEPNVQKAAAALVDAAKTHGGRDNVTVVVISV	soluble
MSLSDDTIDRFFGYLNWLFNPFHGLKTTEVYDLIGTSSLTENALYLNLGYWRKADTIDEASEALALLVAKRGGMGPGDIVLDCGYGFGDQDILWARQLKPEKIIGLNITSSQVERARKRVADAGLEQSIDLREGSATAMPIENESIDLVVSVESAFHYRTREAFFREAFRVLRPGGRLVTADIVPTENSGNPFRRMEQWFSWNLVAGKFNIPQENYYLIPSYQNKLTKAGFVQIDIKSIRDDVYEPLHAYLAKNRTFFAKMHPLARIMAQLTLNRSAESVYAGLDYILSYAEKEGHHHHHH	soluble
MQRTGELPAEHVPVILESSGAGDFHLIDSGNGLKLEQYGDYRVVRPEAQALWRPLVPDRVWQNADAIFTGDTDEDGMGRWRFPKEALGETWPLSLLGVEFLGRFTAFRHVGVFPEQIVHWEWLKNAVETADRPLKVLNLFGYTGVASLVAAAAGAEVTHVDASKKAIGWAKENQVLAGLEQAPIRWICEDAMKFIQREERRGSTYDIILTDPPKFGRGTHGEVWQLFDHLPLMLDICREILSPKALGLVLTAYSIRASFYSMHELMRETMRGAGGVVASGELVIREAGLDGKTPGRVLSTSLFSRWEPK	soluble
MNTLSSLLLALQQADSFFPGGAVAWSWGLETLVADGRLGAGERVTARRRQRAVRLDRSAAVRGFVEGQLRHRWHSFDRVFLLAAWNAADDVSALTNLDAQIEALTLAKELRQGSRRVGQALLGVHVALGTPGAAAYQQQVRAGNTPGHLPVLQGLLWNRLGMHREHCQLAAAHGLCTGLVSAAVRLGVMGHIDAQRVLTDIQPLITELLALEPPEPEDACGFTPMAEIAVMRHETQDLRLFANLEHHHHHH	soluble
MDRTTPWQQQPIRYSADLEKPSPREQADIEKIMAKLLKNNERAYDKYKHGLRDAHAKSHAILRGELIVNEGLPPELAQGLFAEPRTYPVIARLSSTSGVRRSDKTRGVRGLGLKVLGVQGEKILPDDSSTNQDFVMVTHEDFLFADAHAYAGLGMITASLLARLSDQALWLGSGLLDLVSKAGIKLPDNLMVFVAPNRPILGLEFFSSAPFRHGDHVAKYRFAPASENVKALSGQLLPRNPAPEQHRDMIAEFFADQTAEFDFSAQLCTDPVAMPIEDAGKNWDKSISPYVSVAKIVFGPQNPYSALRRAYGDDVLAFNSWRGLAEHRPLGSINRLKKTVYESSADYRHRVNRIDRHEPVDISELPDLEHHHHHH	soluble
MLEDLRLYQLISPSLPVGSFTYSQGLEWAIEKGWVTNVTELKHWLSNQLMDSLATLELPVLAKLTQLLQQEEWQQAQDWCDFIIANRETKELRLEERQRGLAFSMLLPKLGIELNQTTLPMVKQTQVAAFALAANHWNLTPTKLAAAYAWGWLENAVIVGIKLVPLGQSAGQQLLLEMADVIPQAVEKSQHWPEHLIGSFTPAQVLASSRHESQYTRLFRSLEHHHHHH	soluble
MRYAAYYAPRPDSALWRAGCEWLGYDAAGGAQLPRPDVEGVEAGELAGLTREAARYGWHATLKAPFALRPGVGEDALLLQTSMLARRFQPFALSLQVGWLGDFLALRPAGPCAELDELAAACSVSLEGLADRHAPLRPREGLDPRQQALYRRWGYPYVFEQFRFHLTLSDRLDRESAAAVLIERGARRHFAGLLQQVAVAGVTLFVEREQGGPFRYLAYCGFNGEVARHGR	not soluble
MVLALITLVVSAFLIPEVLADPCGDSNWRYFPQTNSCYKLIDENLPWTIAEFKCLFQGAHHVSIDSPEENQFVHELSRWSEIWTGAAFFGKDQHYVNSDGSRYGNFENWKDGRKPPMNRARRCIKMDGNGEWFQSCCKKKTFTICEKKAAYSASSYSGSNNSVNGFRFMRHRS	not soluble
MKSSKASEEDLAAATEKMQSMKGKKSQAAAALEAEQAKAEKRLSCLLKARTKLSFRVIRDGIKCHGGIHLKKQSEKAELDISVTNTAINNLPSDADIVITHKDLTDRAKAKLPNATHISVDNFLNSPKYDELIEKLKSNLIEREYCHASTRKGNIKLNQTVSSKEEAIKLAGQTLIDNGYVTEDYISKMFDREETSSTFMGNFIAIPHGTEEAKSEVLHSGISIIQIPEGVEYGEGNTAKVVFGIAGKNNEHLDIL	soluble
MGSDKIHHHHHHMSFDRPEIYSAPVLQGESPNDDDNTEIIKSFKNFILEFRLDSQFIYRDQLRNNILVKNYSLTVNMEHLIGYNEDIYKKLSDEPSDIIPLFETAITQVAKRISILSRAQSANNNDKDPENTSMDTDSLLLNSLPTFQLILNSNANQIPLRDLDSEHVSKIVRLSGIIISTSVLSSRATYLSIMCRNCRHTTSITINNFNSITGNTVSLPRSCLSTIESESSMANESNIGDESTKKNCGPDPYIIIHESSKFIDQQFLKLQEIPELVPVGEMPRNLTMTCDRYLTNKVIPGTRVTIVGIYSIYNSKNGAGSGRSGGGNGGSGVAIRTPYIKILGIQSDVETSSIWNSVTMFTEEEEEEFLQLSRNPKLYEILTNSIAPSIFGNEDIKKAIVCLLMGGSKKILPDGMRLRGDINVLLLGDPGTAKSQLLKFVEKVSPIAVYTSGKGSSAAGLTASVQRDPMTREFYLEGGAMVLADGGVVCIDEFDKMRDEDRVAIHEAMEQQTISIAKAGITTVLNSRTSVLAAANPIYGRYDDLKSPGDNIDFQTTILSRFDMIFIVKDDHNEERDISIANHVINIHTGNANAMQNQQEENGSEISIEKMKRYITYCRLKCAPRLSPQAAEKLSSNFVTIRKQLLINELESTERSSIPITIRQLEAIIRITESLAKLELSPIAQERHVDEAIRLFQASTMDAASQDPIGGLNQASGTSLSEIRRFEQELKRRLPIGWSTSYQTLRREFVDTHRFSQLALDKALYALEKHETIQLRHQGQNIYRSGV	not soluble
MILKPIGVVKSPFKTQNDAPRQGRFSDAVSEIAIFDEYADGLHKIENLRHIIVLYWMDKASRDKLRVVPPGETEERGVFTTRSPSRPNPIGLCVVEILEVERNRLKVRWLDALDGSPVIDIKKYSPEIDCVNQLEGQQPLEHHHHHH	soluble
MGHHHHHHSHNTTKPKSLAVKKAKWHLGIRSQSKPYDIMAEVYRAMKQLDFEWKVVNAYHLRVRRKNPVTGNYVKMSLQLYLVDNRSYLLDFKSIDDEVVEQRSGS	not soluble
MGHHHHHHSHLCTNFFIFTGGPGSGKTAVLNELNTWGYLTVSEVARSIIQKQQADGGDAIHTGNRKAFRDLMLEQSIADYCKMQSEEKIVFFDRGIPDLYGYSKAFCGEASKEVNEAVGRFRYNKTVFIFPPWPEIYENDDERQQDYQEALQTYYAVKEGYFDCGYVLLEVPKCPIKDRANFIFQMISKNG	not soluble
MGSDKIHHHHHHMQATRESRLIFNINLIYGRLQRNCYGLVALLLCFTSTSAAALDSPVFYKIEYQQQQAYLLGSIHVGRQDFYPLAQHIESAFKQSDALVVEADISQGDTGALLQRYGGLPAEIAADVNATRQEYCQSHQTLCQALAPYAPWLQSAQISMGRFGQLGYSAEQGVDAYFMANRSGKNVVELESIQFQFELISSFSTATQLQMLDDSINASDAEMLDLIYAWRQGDGNALANIMESQAGDADELLEKLLWQRNHTMAQKIIQLLQSKTHKQLFIVVGAGHIVGQQAIPDLLKQQGATITRCSFLQC	not soluble
MGSDKIHHHHHHMLTQDQDQKQRNWKPIIKAFEAVLGTNGVVQRREELITYECDGLTSYRQRPAVAVLPRTTEQVAAVVKICNQYAVPFIARGSGTGLSGGALPSEDSVLIVTSLMRQILNVDLDNQRIVVQPGVINSWVTQTVSGAGFYYAPDPSSQIICSIGGNVAENSGGVHCLKYGVTTNHVLGLKIVTPEGEIVDLGGQIPEAPGYDLTGIFVGSEGTLGIATEITLRILKSAESICVLLADFTSVEAAGATVSDIISAGIIPGGMEMMDNVSINAVEDVVATNCYPRDATAILLVEIDGLDVEVAVNKQRVTDICQQNGARSVTSASDPETRLKLWKGRKAAFAAAGHLSPDYYVQDGVIPRTQLPYVLQEIEALSQKFGYPIANVFHAGDGNLHPLILFDNSISGALEKVEELGGEILKLCVRVGGSISGEHGIGADKKCYMPDMFSDVDLETMQWIRQVFNPQGLANPGKIFPTPRTCGEAANAIKNQHFEGVERF	not soluble
MRTAEIREKFLSFFEGKGHLRLPSFSLIPEDDPSLLFTSAGMAPLKPYFLGAKPIFGGREWRRVTTCQECLRVGDIENVGRTSRHNTYFEMLGNFSFGDYFKKEAILWAWEFLTEHLKLDPGRLWVTVFEDDDEAYEIWRDLVGVPEERIGRFGEDENYWPGGAITHGPNGPSGPCSEIFYDRGPAYGTPDETGPNTGSGDRFVEIWNLVFTQYDRQGPIPGPGILKPLPQKNIDTGMGLYRVAAILQDVEDFYRTDTFFPIIQEVARMSGRPYEGKTSVSHRVIADHVRAVVAALSDGATFSNTGRGYVIRRLLRRALRHGYLLGLSDPFLHRLAPLVAELLGDFYPEMRENLPAVEKQIRLEEERFLETLEGGLKRLDALLSGLKPGEVLPGKEAFRLYDTYGFPLDLTVEIAAERGYGVDTEGFQKAMEEQQSRSRAAMAFEREIFKKGAQVLEELYAERGATEFLGYNALEAEAEVLALLAGDQSLLEAGPGTEVQVVLDKTPFYAEGGGQIGDFGLLEWPGGRARVETTRKTERGIFLHKARVEEGVLRVGERVRAVVDPRRRDTERNHTATHLLHAALRAVLGPHVRQAGSLVAPDRLRFDFTHPEPLKPEELERVELLVNRWIMADFPVTWRYMPLEEARKEGAMALFGEKYGEVVRVVRVEGSPLEGLESKELCGGCHVRRTGEIGAFLIRSEEAVSAGVRRIEAVTGEEAIRFARGSLNRLKALAERLEVGEAALEERLEKLLAELKEKEREVESLKARLVQAALGGGGGASLEEKGGLRWTVAELPGLDAKALRQAADDLVARGADVALVLSGGQAVLKLSPKAQGMGLEAGALFRALAEKAGGRGGGKGALAQGGGLDPRKAREALPGLLP	soluble

Source: the DeepSol protein solubility set
